1 substance from PMC9734910 can be followed below.

As a reminder, the stoichiometry N is the number of molecules, sites or subunits per partner or assembly.

For the assay, the target named is Bat37ACE2(18–740) (Pipistrellus pipistrellus (Bat37)). Put plainly: […]; 20 mM HEPES, 100 mM NaCl, pH 7.5.

Bat37ACE2(18–740) (domain or fragment) returned a stoichiometry N of 2.
